In paper PMC8452638:
Blank lines part the entries; values can stand above or below the substance they belong to.

Key:
[1] = test system: RAD-51 (nematode); assay: stopped-flow Cy3 fluorescence; details: SF buffer: 50 mM Tris-HCl pH 7.5, 5 mM MgCl2, 50 mM NaCl, 2 mM ATP or ADP or no nucleotide; EMSA 25 C with 0.125% glutaraldehyde; BLI room temperature with …
[2] = test system: RAD-51 (nematode); assay: stopped-flow Cy3 fluorescence, competitor challenge; details: Cy3 in backbone after nt 21; SF buffer: 50 mM Tris-HCl pH 7.5, 5 mM MgCl2, 50 mM NaCl, 2 mM ATP or ADP or no nucleotide; EMSA 25 C with 0.125% glutaraldehyde; BLI room temperature with …
[3] = molecular target: RAD-51 (nematode) (UniProt Q95Q25)

Substance: TTTTTTTTTTTTTTTTTTTTTTTTTTTTTTTTTTTTTTTTTTT [Cy3-43mer (label position not stated)]
- IC50 [1]: 200 nM

Substance: TTTTTTTTTTTTTTTTTTTTTTTTTTTTTTTTTTTTTTTTTTT [(Int21)-Cy3-43mer]
- K half [2]: 26 nM

- stopped-flow, Cy3-43mer ssDNA (15 nM), RAD-51 1 uM pre-mixed with increasing RFS-1/RIP-1 (up to 1 uM), no nucleotide: reduction of the fluorescence increase due to RAD-51 binding to ssDNA [3]: 3 fold
Substance: RFS-1/RIP-1 complex (from UniProt P34348 1-245)
